Activity data for 1 molecule are collected here from patent US20250092426, “CAS ENDONUCLEASES AND RELATED METHODS” (Flagship Pioneering Innovations VII, LLC, published 2025).

This data set deals with T1, CasEnd-14 (synthetic construct).
T1 chain: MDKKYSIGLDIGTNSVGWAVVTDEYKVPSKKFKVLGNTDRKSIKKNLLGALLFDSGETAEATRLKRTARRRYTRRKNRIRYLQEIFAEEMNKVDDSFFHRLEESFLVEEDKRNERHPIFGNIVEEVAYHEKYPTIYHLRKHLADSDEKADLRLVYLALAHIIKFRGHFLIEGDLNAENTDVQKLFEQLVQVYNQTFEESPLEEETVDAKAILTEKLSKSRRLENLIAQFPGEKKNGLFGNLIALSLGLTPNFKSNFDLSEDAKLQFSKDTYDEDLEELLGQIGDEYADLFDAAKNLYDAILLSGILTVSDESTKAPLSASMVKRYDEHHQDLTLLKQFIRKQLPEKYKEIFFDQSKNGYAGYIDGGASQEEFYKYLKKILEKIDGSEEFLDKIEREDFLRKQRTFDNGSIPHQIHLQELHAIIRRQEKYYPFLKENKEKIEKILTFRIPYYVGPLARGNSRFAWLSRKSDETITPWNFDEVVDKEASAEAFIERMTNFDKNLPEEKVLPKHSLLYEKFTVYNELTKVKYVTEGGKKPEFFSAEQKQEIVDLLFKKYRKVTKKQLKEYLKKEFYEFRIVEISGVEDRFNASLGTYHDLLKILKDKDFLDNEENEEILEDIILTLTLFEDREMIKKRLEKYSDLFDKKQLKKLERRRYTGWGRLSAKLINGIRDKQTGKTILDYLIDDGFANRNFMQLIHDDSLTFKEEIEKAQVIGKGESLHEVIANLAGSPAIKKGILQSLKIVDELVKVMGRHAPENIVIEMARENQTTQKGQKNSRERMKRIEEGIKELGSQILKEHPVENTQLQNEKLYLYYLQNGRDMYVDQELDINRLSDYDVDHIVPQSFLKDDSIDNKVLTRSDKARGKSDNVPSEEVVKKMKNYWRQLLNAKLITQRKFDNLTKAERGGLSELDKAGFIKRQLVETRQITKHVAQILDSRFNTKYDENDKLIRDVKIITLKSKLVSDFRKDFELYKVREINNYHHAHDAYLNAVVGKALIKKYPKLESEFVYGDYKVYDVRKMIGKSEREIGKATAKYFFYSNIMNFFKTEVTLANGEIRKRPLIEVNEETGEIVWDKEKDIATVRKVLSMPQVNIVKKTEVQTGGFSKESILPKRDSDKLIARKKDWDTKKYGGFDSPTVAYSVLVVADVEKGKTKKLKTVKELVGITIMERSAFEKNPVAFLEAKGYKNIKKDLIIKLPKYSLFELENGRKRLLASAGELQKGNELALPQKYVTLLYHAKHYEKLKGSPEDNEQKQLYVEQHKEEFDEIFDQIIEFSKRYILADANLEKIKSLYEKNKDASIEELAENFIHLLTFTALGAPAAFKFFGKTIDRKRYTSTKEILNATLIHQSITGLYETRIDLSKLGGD
Description: cell_activity; +++; HEK293T; PAM not stated. In outline:
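BFP-to-GFP conversion via reverse transcriptase fusion with each Cas endonuclease plus template RNA: 200 ng of each plasmid nucleofected into 250,000 BFP-expressing HEK293T cells (program DS-150). Percent GFP+ cells by flow cytometry at day 4 measured editing.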

B1: BFP-to-GFP template RNA ; BFP reporter protospacer (ssRNA ; dsDNA)
RNA: GCCGAAGCACUGCACGCCGUGUUUUAGAGCUAGAAAUAGCAAGUUAAAAUAAGGCUAGUCCGUUAUCAACUUGAAAAAGUGGCACCGAGUCGGUGCACCCUGACGUACGGCGUGCAGUGCUU
DNA 1: GCCGAAGCACTGCACGCCGT
DNA 2: ACGGCGTGCAGTGCTTCGGC
In the case of B1, the activity was ≥ 100 % of reference.
